What all share (test): MST
In one data set the target is T1, RMB1 MBD W22G (Arabidopsis thaliana, UniProt F4I209 1-81, W22G).
T1 sequence: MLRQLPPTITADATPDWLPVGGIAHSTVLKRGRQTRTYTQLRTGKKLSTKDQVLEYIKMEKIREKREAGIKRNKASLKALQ

The target in the next data set is T2, RMB1 MBD (Arabidopsis thaliana, UniProt F4I209 1-81).
T2 sequence: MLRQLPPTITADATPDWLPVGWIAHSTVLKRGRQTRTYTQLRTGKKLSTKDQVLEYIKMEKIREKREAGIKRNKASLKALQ

The target of the next data set is T3, RMB1 MBD Y38F (Arabidopsis thaliana, UniProt F4I209 1-81, Y38F).
T3 sequence: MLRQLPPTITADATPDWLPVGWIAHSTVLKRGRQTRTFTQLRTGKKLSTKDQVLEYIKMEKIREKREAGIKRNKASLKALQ

In another data set the target is T4, RMB1 MBD T49A (Arabidopsis thaliana, UniProt F4I209 1-81, T49A).
T4 sequence: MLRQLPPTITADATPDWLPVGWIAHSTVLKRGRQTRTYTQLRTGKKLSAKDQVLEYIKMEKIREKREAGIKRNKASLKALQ

The target of the next data set is T5, RMB1 MBD K50T (Arabidopsis thaliana, UniProt F4I209 1-81, K50T).
T5 sequence: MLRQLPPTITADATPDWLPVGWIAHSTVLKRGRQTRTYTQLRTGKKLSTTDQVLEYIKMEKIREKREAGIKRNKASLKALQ

B1: AT5G39160 mCG (dsDNA)
DNA 1: TTTGGTACGGACTTTTAGTTACAAGAGAGCATTTAAACAAAAATGACCGGTAGATGGAA
DNA 2: TTCCATCTACCGGTCATTTTTGTTTAAATGCTCTCTTGTAACTAAAAGTCCGTACCAAA
modifications: 5mC at forward 8 and 48; reverse strand line not in material, its methylation unknown
Consider B1, for which the dissociation constant Kd (usually the free concentration of one partner at which half of the binding sites on the other are occupied at equilibrium, for simple one-to-one binding) in the data set with RMB1 MBD W22G was determined as 13.3 ± 4.67 µM; in the data set with RMB1 MBD it was 1.77 ± 0.7 µM; in the data set with RMB1 MBD Y38F, 2.15 ± 0.75 µM; in the data set with RMB1 MBD T49A, 3.58 ± 2.07 µM. Also, the binding result with RMB1 MBD K50T is reported as “no binding”.

B2: AT5G39160 mCHG (dsDNA)
DNA 1: TTTGGTACGGACTTTTAGTTACAAGAGAGCATTTAAACAAAAATGACCGGTAGATGGAA
DNA 2: TTCCATCTACCGGTCATTTTTGTTTAAATGCTCTCTTGTAACTAAAAGTCCGTACCAAA
modifications: 5mC in CHG context; positions not in material (base sequence taken from Um probe)
Take B2: the values for the Kd with RMB1 MBD, with RMB1 MBD Y38F and in the data set with RMB1 MBD T49A were 3.34 ± 0.27 µM, 5.16 ± 2 µM and 4.11 ± 2.92 µM, respectively. The binding result with RMB1 MBD K50T is reported as “no binding”.

B3: AT5G39160 mCHH (dsDNA)
DNA 1: TTTGGTACGGACTTTTAGTTACAAGAGAGCATTTAAACAAAAATGACCGGTAGATGGAA
DNA 2: TTCCATCTACCGGTCATTTTTGTTTAAATGCTCTCTTGTAACTAAAAGTCCGTACCAAA
modifications: 5mC at forward 12, 22, 30, 38; reverse unmethylated
In the data set with RMB1 MBD, B3 had a Kd of 2.86 ± 1.21 µM.

Values taken from paper doi:10.1101/2020.02.21.958371.
